These are literature values, as cited in paper PMC10276003.

This series has as its target GRB2 (Homo sapiens) (UniProt P62993).

Chain of GRB2 (P62993 whole entry): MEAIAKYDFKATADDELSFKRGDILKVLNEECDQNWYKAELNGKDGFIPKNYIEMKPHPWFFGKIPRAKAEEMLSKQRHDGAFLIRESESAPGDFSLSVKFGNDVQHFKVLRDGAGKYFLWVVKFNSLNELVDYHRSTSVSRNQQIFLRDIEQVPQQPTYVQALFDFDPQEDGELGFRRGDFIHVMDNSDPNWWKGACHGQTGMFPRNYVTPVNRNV

Broadly, the Kd is a measure of binding affinity in units of concentration. For GRB2 (from UniProt P62993), the Kd was 700 nM.
